The nature of the data set: Solubility of drug substance in water. The format is physicochemical. As for the experimental part:
Drug Substance [TRS]: is a trifluoroacetate [TFA] salt of phosphorylcholine-tuftsin conjugate represented by Formula 1, SEQ ID NO: 2 (as shown herein). Molecular formula: C43H68N13013P, Appearance: Yellow to orange solid. Solubility: >40 mg/ml in water.

*1 amine or outer side, *2 acyl side, *3 side chain or, on linkers, in order; H or OH if unused. Where a SMILES comes first, the peptide text is derived from it. [ ]: non-standard residue; d: D form. X1 = C[N+](C)(C)CCOP(=O)([O-])Oc1ccc(/N=N/c2cc(C[C@H](N[*:1])C(=O)[*:2])ccc2O)cc1 Some results are limits rather than exact numbers.

Turning to `C[C@@H](O)[C@H](N)C(=O)N[C@@H](CCCCN)C(=O)N1CCC[C@H]1C(=O)N[C@@H](CCCNC(=N)N)C(=O)NCC(=O)N[C@@H](Cc1ccc(O)c(/N=N/c2ccc(OP(=O)([O-])OCC[N+](C)(C)C)cc2)c1)C(=O)O` [TRS, phosphorylcholine-tuftsin conjugate] (H-TKPRG[X1]-OH), the solubility (as a rule, the concentration that dissolves in the medium under given conditions) is > 40 mg/mL.

The values above are taken from US20250186535A1, “OPHTALMIC COMPOSITIONS AND METHODS OF USING SAME” (Tarsier Pharma Ltd., priority 2021, published 2025).
